Reference: patent US20240392024A1 (SHANGHAI CELGEN BIO PHARMACEUTICAL, published 2024)
Numbering of substitutions follows the chain as printed.

Assays:
[1] = target: T1, recombinant human TNFR2 antigen (Kangdai, batch number A100114U) (human, UniProt P20333 23-257); test: ELISA, plate coated with recombinant human TNFR2 antigen
T1 construct: also called hTNFR2; TNFR2-FC (Shanghai Saijin Biopharmaceutical Co., Ltd., Qiangke, catalog number A100114U); not shown: Fc part of the bought TNFR2-FC
T1 sequence (looked up): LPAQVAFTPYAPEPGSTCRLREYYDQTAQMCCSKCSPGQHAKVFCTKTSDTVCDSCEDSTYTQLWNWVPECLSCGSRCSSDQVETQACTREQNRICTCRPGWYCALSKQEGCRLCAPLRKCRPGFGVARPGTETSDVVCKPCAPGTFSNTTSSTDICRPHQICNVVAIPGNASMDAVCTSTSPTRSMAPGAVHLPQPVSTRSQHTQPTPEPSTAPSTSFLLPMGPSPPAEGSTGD
Experimental: (§1) After TMB development, the detection was performed using microplate reader: dual wavelength 450 nm/655 nm detection, and results were calculated by OD₄₅₀-OD₆₅₅.

[2] = target: T1, recombinant human TNFR2 antigen …; test: ELISA, coated recombinant human TNFR2
Experimental: as §1

[3] = target: T2, recombinant cynomolgus monkey TNFR2 (Cyno. TNFR2) (Sino Biological, 90102-C021) (cynomolgus monkey, UniProt A0A2K5VET2 132-366); test: ELISA, coated cynomolgus TNFR2
T2 sequence: T1 sequence (looked up) with S16G, S36P, P117Q, N164H, E210A, S216G, M223V
Experimental: as §1
(§2) Using the same method as above, the TNFR2 antigens of cynomolgus monkey and mouse (Sino Biological, 90102-C021 and 50128-M08H) were coated separately. The anti-human TNFR2 mouse monoclonal antibodies to be tested were gradient diluted, then added with the anti-mouse Fab segment secondary antibody (Jackson Immuno Research, 515-035-072), and TMB development was performed. ELISA was used to detect the binding of 8 strains of mouse monoclonal antibodies to recombinant mouse TNFR2 (mTNFR2) and cynomolgus monkey TNFR2 (Cyno. TNFR2).

[4] = target: T3, recombinant mouse TNFR2 (mTNFR2) (Sino Biological, 50128-M08H) (mouse, UniProt P25119 23-258); test: ELISA, plate coated with recombinant mouse TNFR2
T3 sequence (looked up): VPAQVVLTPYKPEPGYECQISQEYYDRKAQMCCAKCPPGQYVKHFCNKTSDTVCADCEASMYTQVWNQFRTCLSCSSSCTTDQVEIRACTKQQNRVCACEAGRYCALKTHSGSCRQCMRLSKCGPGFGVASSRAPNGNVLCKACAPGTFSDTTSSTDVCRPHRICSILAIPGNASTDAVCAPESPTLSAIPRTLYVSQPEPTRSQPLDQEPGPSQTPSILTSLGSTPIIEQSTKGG
Experimental: as §1, §2

[5] = target: T4, human TNFR2 on the cell membrane (human, UniProt P20333 23-461); test: flow cytometry, TNFR2-CHO cells
T4 construct: whole, on cells; One molecule for all cell formats; also called TNFR2-CHO cells; CHO-TNFR2
T4 sequence (looked up): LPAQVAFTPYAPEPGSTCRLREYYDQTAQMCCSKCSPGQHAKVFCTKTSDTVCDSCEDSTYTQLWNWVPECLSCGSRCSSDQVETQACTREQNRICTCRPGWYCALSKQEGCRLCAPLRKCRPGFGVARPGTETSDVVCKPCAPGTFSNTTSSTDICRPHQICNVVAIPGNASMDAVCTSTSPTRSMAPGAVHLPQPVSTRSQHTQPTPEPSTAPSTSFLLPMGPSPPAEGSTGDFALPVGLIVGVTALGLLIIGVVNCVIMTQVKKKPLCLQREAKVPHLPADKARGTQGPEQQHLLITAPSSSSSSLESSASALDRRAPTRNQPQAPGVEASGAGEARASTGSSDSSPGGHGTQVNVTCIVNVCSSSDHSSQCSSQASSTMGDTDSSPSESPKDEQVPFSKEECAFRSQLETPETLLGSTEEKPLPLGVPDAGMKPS
Experimental: (§3) Purified anti-human TNFR2 mouse monoclonal antibodies were co-incubated with TNFR2 overexpressing CHO cell lines (obtained routinely as follows: PCDNA3.4-TNFR2 was transfected into CHO cells, and stable high expression TNFR2 cell lines were obtained through drug screening and monoclonal sorting), and then stained. The antibody binding intensity was analyzed by flow cytometry. The specific steps are as follows: TNFR2-CHO cells were counted, centrifuged, resuspended, then added to a 96-deep well plate, and the supernatant was discarded. The anti-TNFR2 antibodies to be tested were gradient diluted, added to the 96-deep well plate. […] The samples were detected using Beckman CytoFLEX.

[6] = target: T4, human TNFR2 on the cell membrane; test: flow cytometry on TNFR2-CHO cells
Experimental: as §3

[7] = target: T2, recombinant cynomolgus monkey TNFR2 …; test: ELISA, plate coated with recombinant cynomolgus monkey TNFR2

B1: anti-human TNFR2 mouse monoclonal antibody 16D2 (antibody, V domains shown)
VH: EVQLQQSEPELVKPGASVKIPCKASGYTFTDYNMDWVKQSHGKSLEWIGDINPNNGVTIYNQKFKGKATLTVDKSSSTAYMELRSLTSEDTAVYYCVILEYFDYWGQGTTLTVSS
VL: DIVMTQSTSSMSVSLGDTVSITCHASQGISSNIGWLQQKPGKSFKGLIYHGTKLEDGVPSRFSGSGSGADYSLTISSLESEDFADYYCVQYAQFPRTFGGGTKLEIK
Question: B1 was tested. Which EC50 [1] did it give?
Answer: 0.146 nM

Question: And the EC50 [2]?
Answer: 0.0218 µg/mL

Question: And the EC50 [3]?
Answer: 0.0371 µg/mL

Question: Does B1 bind [4]?
Answer: no binding

Question: And the EC50 [5]?
Answer: 5.71 µg/mL

Question: What about the EC50 [6] of the same binder?
Answer: 38.3 nM

Question: What about the EC50 [7] of the same binder?
Answer: 0.248 nM
